Results published in paper PMC2923024.

Experiments:
hnRNP A1 UP1 fragment = hnRNP A1 UP1 fragment (UniProt P09651 1-196); assay: competition
KSRP = molecular target: T1, KSRP (UniProt Q92945 1-711); assay: competition
T1 sequence: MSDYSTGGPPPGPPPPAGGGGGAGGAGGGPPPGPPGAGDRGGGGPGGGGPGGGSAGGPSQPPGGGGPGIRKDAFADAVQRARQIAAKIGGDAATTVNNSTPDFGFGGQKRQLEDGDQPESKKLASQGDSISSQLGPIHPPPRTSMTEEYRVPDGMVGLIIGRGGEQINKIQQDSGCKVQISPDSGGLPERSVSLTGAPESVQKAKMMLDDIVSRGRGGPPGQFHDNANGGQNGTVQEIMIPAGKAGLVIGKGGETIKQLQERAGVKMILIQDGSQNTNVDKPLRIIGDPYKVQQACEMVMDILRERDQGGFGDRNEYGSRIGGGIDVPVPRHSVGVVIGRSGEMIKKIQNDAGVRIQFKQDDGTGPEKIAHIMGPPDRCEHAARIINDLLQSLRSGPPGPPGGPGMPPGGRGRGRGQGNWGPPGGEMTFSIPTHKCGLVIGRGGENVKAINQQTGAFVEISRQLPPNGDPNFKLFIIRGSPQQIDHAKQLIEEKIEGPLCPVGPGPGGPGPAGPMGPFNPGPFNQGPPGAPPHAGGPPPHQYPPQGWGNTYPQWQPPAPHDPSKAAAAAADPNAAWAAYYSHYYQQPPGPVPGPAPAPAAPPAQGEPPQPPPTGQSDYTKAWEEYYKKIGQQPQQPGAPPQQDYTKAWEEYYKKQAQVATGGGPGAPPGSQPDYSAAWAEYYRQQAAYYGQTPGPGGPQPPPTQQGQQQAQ

hnRNP A1 UP1 fragment, sequence (P09651 1-196): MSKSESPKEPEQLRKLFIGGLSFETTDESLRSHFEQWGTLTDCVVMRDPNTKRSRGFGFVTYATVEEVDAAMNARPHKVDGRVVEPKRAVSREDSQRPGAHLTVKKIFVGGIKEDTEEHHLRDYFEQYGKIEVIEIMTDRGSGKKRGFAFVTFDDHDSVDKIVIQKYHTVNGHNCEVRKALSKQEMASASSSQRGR

B1: let-7a-1 loop (structured_RNA)
RNA: GUUGUAUAGUUUUAGGGUCACACCCACCACUGGGAGAUAACUAUACAAUC
hnRNP A1 UP1 fragment
  binding result: binds
KSRP
  binding result: binds
